Consider 20 sequences from the DeepSol protein solubility set.

This data set in a line: soluble on expression in E. coli; label from the status in PepcDB or PDB records.
With “MGSDKIHHHHHHMITTDSGEQVEALAPIIISASRSTDIPAFYAKWFFNRLAKGYCVWYNPFNRRKMYVSFERCKAIVFWTKNPKLILPYLHELDRRGIHYYFQFTLNDYVSEGFEPNVPSVTQRVETFRELSEMIGKERVIWRFDPLIMTPSITPRVLLSRIWKIGNLLKGYTDKLVFSFVDVKAYRKVQNNLIKETNCFTKEDVETAEMNATQRQETVEGLVKLREIWASTGWNVTLATCAEDIDLTVYGIEHNRCIDGDLMERVFEEDYELVYYLRTGQLPEPDLFGTFPALPDKRKDLKDKGQRKACGCMISKDIGRYNTCRHFCVYCYANTSRECVQKNAVHYSDDSESLIRS”, the “soluble on expression in E. coli” value was “not soluble”.

For the sequence “MSLTRATKGFLSKSLPKASEATPGSQSSDYIPLVSLQLASGAFLLNEAFCTTIQIPMEKLKWTSPFSCLRMSLVTRRQDLKTQSPQDCTSLSSSPPSCDGISLKSEESSDQESNAMLEHMGKLWATVVALAWLEHSSANYIIEWELVAAKASSWVEKQKVPEGRTLSTLKNTARQLFVLLRHWDEKLEFNMLCYNPNYVEGHHHHHH”, the “soluble on expression in E. coli” value is listed as “not soluble”. Take “MLMRPLDLTEKRGKKVTIYFEGKELEAYEGEKLPVALLANEIYWLTTSNEGRKRGAFTFGPVPMTVNGVKGLEARRIKVKDGMKIERQGYYDFHEEPVVEPGEIERVVVDVAIIGGGPAGIGAALELQQYLTVALIEERGWLGGDMWLKGIKQEGFNKDSRKVVEELVGKLNENTKIYLETSALGVFDKGEYFLVPVVRGDKLIEILAKRVVLATGAIDSTMLFENNDMPGVFRRDFALEVMNVWEVAPGRKVAVTGSKADEVIQELERWGIDYVHIPNVKRVEGNEKVERVIDMNNHEYKVDALIFADGRRPDINPITQAGGKLRFRRGYYSPVLDEYHRIKDGIYVAGSAVSIKPHYANYLEGKLVGAYILKEFGYDAQPCIYEEKLREYEPESLSIPRIPLDKFNLEDVQICGCDVSLKKVDEVIRKGITDLQIIKRLTHLAMGFCQGRYCLFNGAVVVSQRTGKKLSEIDLPVARSPIKNVKMGILARR”: the “soluble on expression in E. coli” value is given as “soluble”. “MKQTVAAYIAKTLESAGVKRIWGVTGDSLNGLSDSLNRMGTIEWMSTRHEEVAAFAAGAEAQLSGELAVCAGSCGPGNLHLINGLFDCHRNHVPVLAIAAHIPSSEIGSGYFQETHPQELFRECSHYCELVSSPEQIPQVLAIAMRKAVLNRGVSVVVLPGDVALKPAPEGATMHWYHAPQPVVTPEEEELRKLAQLLRYSSNIALMCGSGCAGAHKELVEFAGKIKAPIVHALRGKEHVEYDNPYDVGMTGLIGFSSGFHTMMNADTLVLLGTQFPYRAFYPTDAKIIQIDINPASIGAHSKVDMALVGDIKSTLRALLPLVEEKADRKFLDKALEDYRDARKGLDDLAKPSEKAIHPQYLAQQISHFAADDAIFTCDVGTPTVWAARYLKMNGKRRLLGSFNHGSMANAMPQALGAQATEPERQVVAMCGDGGFSMLMGDFLSVVQMKLPVKIVVFNNSVLGFVAMEMKAGGYLTDGTELHDTNFARIAEACGITGIRVEKASEVDEALQRAFSIDGPVLVDVVVAKEELAIPPQIKLEQAKGFSLYMLRAIISGRGDEVIELAKTNWLR”: the “soluble on expression in E. coli” value was “soluble”. As for “MRKPKITVIGGGTGSPVILKSLREKDVEIAAIVTVADDGGSSGELRKNMQQLTPPGDLRNVLVAMSDMPKFYEKVFQYRFSEDAGAFAGHPLGNLIIAGLSEMQGSTYNAMQLLSKFFHTTGKIYPSSDHPLTLHAVFQDGTEVAGESHIVDHRGIIDNVYVTNALNDDTPLASRRVVQTILESDMIVLGPGSLFTSILPNIVIKEIGRALLETKAEIAYVCNIMTQRGETEHFTDSDHVEVLHRHLGRPFIDTVLVNIEKVPQEYMNSNRFDEYLVQVEHDFVGLCKQVSRVISSNFLRLENGGAFHDGDLIVDELMRIIQVKKLEHHHHHH”, the “soluble on expression in E. coli” value is on record as “soluble”. With “SNLDGSAQDPEKREYSSVCVGREDDIKKSERMTAVVHDREVVIFYHKGEYHAMDIRCYHSGGPLHLGDIEDFDGRPCIVCPWHKYKITLATGEGLYQSINPKDPSAKPKWCSKGIKQRIHTVTVDNGNIYVTLSNEPFKCDSDFYATGDFKVIKSSS” the entry was “soluble”; with “MSLKASELKKGFAIISNGKTLLIKDIEVTTPGGRGGSKIYKLRCTDLNTGARVDERYKSDDVLDTVEMNKRPISFSYIDGDEYVFMNNDDYTPYNFKKDEIEDELLFITEEIQGMSVVLVDGEAVAIELPSSVEMVIEETDPSIKGASASSRTKPARMPTGLVVQVPEYIATGDRIVINTAERKFMNRAEGHHHHHH”, “soluble”. Turning to “MAHHHHHHMPAVADCTVVFPLRHDPASTHPDVSGLVGKAFERVNWRDAFDTFLAEERSALWAAKTAFDNTDTSAYIAARDALFPQAVSGVHGAVAFRNRAGHKLHETMEAVGLWEYLKGGATRAKGTFTFVDVCGGPGAFSQALFAMGKEHKLRLRGFGLTLRNVKGLDWYTDLPSRSFFPCYGIDGTGDVFKLENIESLCSLTCKENVRLVVADGGFDVPTEVVNFQETISCRIVYGQWLSAVKLLRPGGCFVLKLFDCFSPFTRAILFLTTHLYESVQVVKPRHSRVVNSERYLVCIGFIGAPKQWLEHFERCYQEGFVDNDNIPTVLPTSLFSGDKIFGADVERMSATIASNQVSGLHAILEKLQSKPAMEEVKS”, the “soluble on expression in E. coli” value is given as “not soluble”. With “ANCSIMIDEIIHHLKRPPNPLLDPNNLNSEDMDILMERNLRTPNLLAFVRAVKHLENASAIESILKNLLPCLPLATAAPTRHPIHIKDGDWNEFRRKLTFYLKTLENAQAQQ”, the “soluble on expression in E. coli” value is given as “soluble”. For the sequence “MRLLTIGSGLRGAKVAEILHKKGVKVNRVPLFKCFAVLNNEEHLRSISIGDDRKYYVHGLKGDVSGFVNQITSLYEIFEGSLVLTSLEDDFGYITSLELCQRLRKVTEDAVISLAIVPQLDTSSIGEIKKRIRSLRDVSDILILFEGEVGVERKILEVMNLVALAGEIDLKKRVAGEVVVDTSDVFNALKSDGFAIAGLAERKIPFNFKNLIFRRNSELKAVRTRRMIELTEEALQNVSINGDVENAKSALLLFAGKPDELTMEGLFSSIAMIENINRDIVVRYGDYPIPGSRKVSAVLIFSGIRKFRFA”, the “soluble on expression in E. coli” value is “soluble”. With “MGINVRAVEIQDARAIHRICIQDNVLPYMVFLPSMRVEAMENRIRNLAPNQFEFVAEYDGEVVGFVGLTQSPGRRSHSGDLFIGVDSEYHNKGIGRALLTKMLDLADNWLMLERVELGVLETNPKAKALYEKFGFVEEGVKIGNLKAHGKFINEIMMSRFRPNGLIVHNE” the entry was “not soluble”; with “MTPYMANTKWVDGSVRSDFPQEKMARLYNLNYTIASQVNPHVVPFMQSDASRYRKDILSWPQRILRRQGKVISLGIMDFTRERLGNVPPVRRLLDHGYGIVGQRYYGDVNIIAPFNLRQYAYMLQNPRPHLFKLLQQQGERATLEHHHHHH”, “not soluble”.

On to “MGSDKIHHHHHHMGQGTDSMSKRGRVYIIGAGPGDPGLMTVKGTKCLAEADVVIYDHLINPGILHHARETARLVYAGKEGGKHTLSQEEINARLVSEAQQGHVVARLKGGDPFIFGRGGEEAEVLAREGIPFEIVPGVTSAIAVASYAGIPLTHRRHTATLAFVTGHEDPLKGQSEIDWKALAGIGTLVFLMGVRNLSRIAAGLIAQGKKPETPAALIRWGTTANQETLVGTLENIADLAEAAGFAPPAILVVGGVVGLRKELNWFETRPLFGKGIVITRPESQAESLAALLEDAGARVISFPTIQIVAPESWEGLDSAIRRLEDYAWLIFTSANGVRFFLERLYVTGKDVRDLKGIRLCTIGPATAAALENRGLRVDLVPETYLSEGVVAAFERVAISGQRILLPRAEKARDVIPEGLTRQGAVVDVVSAYRTVNSGRDRSELVELIAQRRVDVLTFTSPSTVTNFLEIMGPDFLPLPAGIRVACIGPVTAAAAEKAGLPVDILQEIYTIPGLVESLKVFLAKDKPH”, for which the “soluble on expression in E. coli” value is “not soluble”.

Consider “MAEEQARHVKNGLECIRALKAEPIGSLAIEEAMAAWSEISDNPGQERATCREEKAGSSGLSKPCLSAIGSTEGGAPRIRGQGPGESDDDAETLGIPPRNLQASSTGLQCYYVYDHSGEAVKGIQDADSIMVQSGLDGDSTLSGGDNESENSDVDIGEPDTEGYAITDRGSAPISMGFRASDVETAEGGEIHELLRLQSRGNNFPKLGKTLNVPPPPDPGRASTSGTPIKKGHRREISLIWNGDRVFIDRWCNPMCSKVTLGTIRARCTCGECPRVCEQCRTDTGVDTRIWYHNLPEIPE”, for which the “soluble on expression in E. coli” value was “not soluble”. For the sequence “MILNILRLPHADEPTTSQSVQDYPLVHFSPRRHQKFRTIISVGDSDVIKDSSLTDEELYNIIHASPIARKSSTVSSTDSGYLGSSGASSSCVRSREGSTVSSTITVERTRRGGSTASSEPDSVADSEGAGSYSSFSSIASTASRMLGRAADCLVLMTKRNGWSGDAGSPSDEKGSSLDAQSWTTAIQSALMPVTPQSSVVGGKRIDKLKVPTEGKTRPPY”, the “soluble on expression in E. coli” value was “not soluble”.

On to “MNINKSKKRDSAVDIDNHDPFSVLLMGVDERDGDKGRADSLIYMTVNPKTKTTEMVSIPRDTYTEIIGKGKMDKINHSYAFGGVQMTVDTVENFLDVPVDYFIKVNMESFKDVVDTLGGITVNSTFAFNYDGYSFGKGEITLNGKEALAYTRMRKEDPNGDFGRQNRQRQVIEGIINKGANISSITKFGDMFKVIENNVKTNLTFDDMWDIQSGYKEARSKVIQHELKGDGTKINGIYYYKADESSLSDITAELKESLNKLEHHHHHH”, for which the “soluble on expression in E. coli” value was “soluble”.

Regarding “MGSDKIHHHHHHMEFSPPLQRATLIQRYKRFLADVITPDGRELTLHCPNTGAMTGCATPGDTVWYSTSDNTKRKYPHTWELTQSQSGAFICVNTLWANRLTKEAILNESISELSGYSSLKSEVKYGSERSRIDFMLQADSRPDCYIEVKSVTLAENEQGYFPDAVTERGQKHLRELMSVAAEGQRAVIFFAVLHSAITRFSPARHIDEKYAQLLSEAQQRGVEILAYKAEISAEGMALKKSLPVTL”, the “soluble on expression in E. coli” value is given as “not soluble”.

For the sequence “MSLRTTESEKGLRMPGLPPMVAPPAEQVDDPVTATDAANAVDAVLRGVLDERLRHCRAVDPLFARELADRLAALTARGGKRLRTAFAHCGWRAAGGSGDATAVLRTGAALELLQACALVHDDVMDGSVQRRGAPALHVDLARGHWAAGMHGSSESFGTSAAVLTGDLALAWADDLLTETALGTPHGPRLHGEWRAMRTEMVAGQYRDLHAQAARSSGVDEALAIATLKSALYTVARPLALGAVLAGAADGDALEALRAAGRCAGLAFQLRDDLLGAFGDPALTGKPADDDLRSRKLTYLLAVAVRLADAADDHLAAAALAPDADPKSEKAVRQVRSALVRTGARDLVETKIGELTDMSLAHFDRCGARPAVRHEFAALIGRATGAVPRGTGEVVEGHHHHHH”, the “soluble on expression in E. coli” value is “soluble”. The value for “MGSDKIHHHHHHMNDQKNAAQVGLGLRREMLSEFCESVPEAINFFEVAPENWMTLGGKFGRQFRELTEQHTFYCHGLSLSIGSPEPLDLAFVKNIKTFMDLHQIQIYSEHLSYCSGQGHLYDLMPIPFTDAAVKHVAARVKQVEDILERPLILENVSFYAAPGARMSELEFVNAVLQEADCKLLLDVNNIYVNSINHQYDADTFLQAMPTERIAYLHIAGHYKQAEDLLIDTHGAAINDPVWALLQRCYALHGVKPTLLERDFNVPTTAELLLELNQIHAYQAAAPSSHIQNSAHVVKRIA” was “not soluble”; that for “LVLEGGGMRGVFTCGVLDYLMDHDIRFPYAIGVSAGACNGLSYASRQRGRAKFSNIDLLEKYNYIGLKHLLRKRNILDFDLLFNEFPEHILPYDYDTYFASPERFVMVTTNCMTGEANYFEEKRDKSRVIDIVRASSSLPFVCPVTYVDGVPMLDGGIVDSIPLQRAIADGYTRNVVILTRNRGYRKDTKDIRIPSFVYRKYPKLREALSRRCAVYNEQLEMVEQMEDEGKIIVIRPQKPVMVDRIERDVQKLTEFYEEGYDCARNLFEF” was “not soluble”.
